Source: the nanobody polyreactivity screen of Harvey et al. (2022)

Assay: yeast display, Sf9 membrane polyspecificity reagent, FACS + sequencing; frameworks hold sequencing errors
How it was run: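 After 36–48 hours of galactose induction, yeast (Saccharomyces cerevisiae BJ5465) displaying a synthetic nanobody library were stained at 4 °C for 1 hour with 10% biotinylated, detergent-solubilized Sf9 membrane reagent. Streptavidin microbeads enriched the stained cells before FACS sorting into low and high (top ~1%) gates on anti-HA and streptavidin fluorescence. Each clone's polyreactivity label reflects its gate of origin.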

| Sequence | polyreactivity (PSR sort gate) |
| --- | --- |
| QVQLVESGGGLVQAGGSLRLTCAASGRTLNPYAMGWYRQAPGKERELVAAITWRGGSTYYADSVKGRFTISRDNAKNTVYLQMNSLKPEDTAVYYCAAREYYYPYYYWGQGTQVTVSS | high polyreactivity |
| QVQLVESGGGLVQAGGSLRLTCAASGRTYNLYAMGWSRQAPGKERELVAAISSSTDSTYYAYSVKGRFTISRDNAKITVYLEMNSLKPEDTSVYYFAARRPSYPRYGYWGQGTQVTVSS | high polyreactivity |
| QVQLVESGGGLVQAGGSLRLTCAASGSIFEPYTKGWYRQAPAKERELVAAITGSGGSTFYADSVKARFTISRDNAKNTVYLQMNSLKPEDTAVYYCNANAYPYTDVDYWGQGTQVTVSS | low polyreactivity |
| QVQLVESGGGLVQAGGSLRLTCAASGSIFEYNGMGWYRQAPGKERELVAAITTTGTTDYADSVKGRFTISRDNAKNTVYLQMNSLKPEDTAVDYCAAEYTYYYTGEYDYWGQGTQVTVSS | low polyreactivity |
| QVQLVESGGGLVQAGGSLRLTCAASGSIFISYHMGWYRQAPGKERELVAAIRSRVGSTYYSDSVKGRFTISRDNAKNPVYFQMNCLKPEDPAVYYCAAERSFSRFTTYDYWGQGTQVTVSS | low polyreactivity |
| QVQLVESGGGLVQAGGSLRLTCAASGSIFSTNAMGWYRQAPGKERELVATITSGGRTYYADSVKGRFTISRDNAKNTVYLQMNSLKPEDTAVYYCARVPPKYRWGRRLVYVHVDYWGQGTQVTVSS | low polyreactivity |
| QVQLVESGGGLVQAGGSLRLTCAASGSIFTGNTMGWYRQATGKERELVAAITGSGGRTYYADSVKGRFTISRDNAKNTVYLQMNSLKPEDTAVYYCAADRSYYPDTRTTYGYNYWGQGTQVTVSS | low polyreactivity |
| QVQLVESGGGLVQAGGSLRLTCAASGSIFYVNAMGWYRQAPGKERESVAGITGSGSRTYYADSVKGRFTISRDNAKNTVYLQMNSLKPEDTAVYYCARLTRTSRGLYDYWGQGTQVTVSS | high polyreactivity |
| QVQLVESGGGLVQAGGSLRLTCAASGSIIYTNGMGWYRQAPAKERELVAAISVSGGSTYYADSVKGRFTITRDNEKNTVYLQMNSLKPEDTAVYFCNAKDWYFYRYDYWGQGTQVTVSS | low polyreactivity |
| QVQLVESGGGLVQAGGSLRLTCAASGSTDPYAMGWYRQAPGKERELVARIRYSGGSTYYADSVKGRCTISRDNAKNTVYFQMTSLKPEDTAVYYCAAQSYTYYHHYGYWGQGTQVTVSS | high polyreactivity |
| QVQLVESGGGLVQAGGSLRLTCAASGSTFAYYAMRWYRQAPGTERELVAVINGITGSTYYADSVKGRFTISRDHAKNTVYLQMNSLKPEDTAVYYCNADYAVVTDEGDYWGQGTQVTVSS | low polyreactivity |
| QVQLVESGGGLVQAGGSLRLTCAASGSTFGDNAMGWYRQAPGKEREFVATISWDTGTTYYADSVKGRFTISRDNAKNTVYLHMNSLKQEDTAVYYCNVQSYAEFGYWGQGTQVTVSS | low polyreactivity |
| QVQLVESGGGLVQAGGSLRLTCAASGSTFGLNAMGWYRQAPAKERELVAAITSRGTRTYYADSVKGRFTISRDNAKNTVYLQMNSLKPEDTAVYYCGKDSGATRYGEYDYWGQGTQVTVSS | low polyreactivity |
| QVQLVESGGGLVQAGGSLRLTCAASGSTFISYAMGWYRPAPGKERELVAAISRRGDSTYYADSVKGRFTISRDNAKYTVYLQMKSLKPEDTAVYYCAADSYPAYLGFVGFDYWRQGTQVTVSS | low polyreactivity |
| QVQLVESGGGLVQAGGSLRLTCAASGSTFRLNAIGWYRQAPGKERELVAAISRSTGTTHYADSVKGRFTISRDNAKHTVYLQMNSLIPEDTAVYYCAAQGGDGVLALYYYWGQGTQVTVSS | low polyreactivity |
| QVQLVESGGGLVQAGGSLRLTCAASGSTFRLYAMGWYRQAPGKERELVAGISRTGTSTYYADSVKGRFTISRDNAKTTVFLQMNSLKPEDTAVYYCAASIGGGSYWGQGTQLTVSS | high polyreactivity |
| QVQLVESGGGLVQAGGSLRLTCAASGSTFRWYAMGWYRPAPGKERELVAVITSGASTNYADSVKGRFTISRDNAKNTVYLQMNSLKPEDTAVYYCNRVPYFRWKYGYWGQGTQVTVSS | high polyreactivity |
| QVQLVESGGGLVQAGGSLRLTCAASGSTFSSYGMGWYRQAPGKERELVASITIRGGSTYYADSVKGRFTISRDNAKNTVYLQMNSLKPEDTAVYYCAADVTNRGTWVIYGYYYWGQGTQVTVSS | low polyreactivity |
| QVQLVESGGGLVQAGGSLRLTCAASGSTFTAYAMGWYRQAPGKDLELVDAINWSGGTTYYADSVKGRFTISRDNAKNTVYLQMNSLKPEDTAVYYCPVDGNFFGEVRPYDYWGQGTQVTLSS | low polyreactivity |
| QVQLVESGGGLVQAGGSLRLTCAASGSTFTYNGMGWYRQAPGKERELVAAITKRGGSTYYADSVKGRFTISRDNAKNTVYLQMNSLKPEETAVYYCAKPAASGFRWDSGYWGQGTQVTLSS | high polyreactivity |
| QVQLVESGGGLVQAGGSLRLTCAASGSTFTYYAMGWYRQAPGKERDLVAAITSSDGSTYYADSVKGRFTISRDNAKNTVYLQMNSLKPEDTAVYYCAADNYVDFYDEYDYWGQGTQVTVSS | low polyreactivity |
| QVQLVESGGGLVQAGGSLRLTCAASGSTFWDNTMGWYRQAPGKDRELVAGITGGGNTKYADSVKGRFTISRDNAKNTVYLQMNSLKPEDTAVYYCAAERLRGYRGVRGYYGYYYWGQGTQVTVSS | high polyreactivity |

| Sequence | polyreactivity (PSR sort gate) |
| --- | --- |
| QVQLVESGGGLVQAGGSLRLTCAASGSTFWSYGMGWYRPAPGKERELVAAITRGGSTYYADSVKGRFTISRDNAKNTVYLQMNSLIPEDTAVYYCAAGISVRWSPSYYYWGQGTQVTVSS | high polyreactivity |
| QVQLVESGGGLVQAGGSLRLTCAASGSTIGGNPMVCYRHAPGKERELVAAITFSGGSTSYADSVKGRFTISRDNAKNTVYLQMNSLKPEDTAVYYCAASWVYPYDYWRQGTQVTVSS | low polyreactivity |
| QVQLVESGGGLVQAGGSLRLTCAASGSTLNYYAMGWYRQAPGKERELVAAIRSGGNTNYADSVKGRFTISRDNAKNTVYLQMNSLKPEDTAVYYCAKDESYFYDRVPLDYWGQGTQVTVSS | low polyreactivity |
| QVQLVESGGGLVQAGGSLRLTCAASGSTLSTYVMGWYRQAPGKERELVAAITRRGGITYYADSVKGRFTISRDNAKNTVYLQMNSLKPEDTAVYYCAATGVRSKRLASQWKLYYWGQGTQVTVSS | high polyreactivity |
| QVQLVESGGGLVQAGGSLRLTCAASGSTLYWKAMGWYRQAPGKERELVASITSSGGSTYYADSVKGRFTISRDNAKNTVYLQMNSLKPEDTAVYDCATESWWRYSEYYYWGQGSQVTVSS | low polyreactivity |
| QVQLVESGGGLVQAGGSLRLTCAASGSTSYPYAMGWYRQEPGKERELVATITSGGRTNYADSVKGRFTISRDNAKNTVYLQMHSLKPEDTAVYYCNARFYRWRSYGYDYWGQGTQVTVSS | high polyreactivity |
| QVQLVESGGGLVQAGGSLRLTCAASGYIFNRNAMGWYRQAPGKERELVAAISGSGAVTYYADSVKGRFTISRDNAKNTVYFQMNSLKPEDTAVYYCAKKLYWREGRYDYWGQGTQVTVSS | high polyreactivity |
| QVQLVESGGGLVQAGGSLRLTCAASGYTFGHYAMGWYRQAPGKERELVAVITSGGSTNYADSVKGRFTISRDNAKNTVYLQMNSLKPEDTAVYYCAADLYFYYVWIRDYWGQGTQVTVSS | low polyreactivity |
| QVQLVESGGGLVQAGGSLRLTCAASGYTFGKYAMGWYREAPGKERELVATIRSGGSTNYADSLKGRFTISRDNAKNTVYLQMNSLKPEDTAVYYCNKRYRYEYGYDYWGQGTLVTVSS | high polyreactivity |
| QVQLVESGGGLVQAGGSLRLTCAASGYTFVIYSMVWYRQAPGKVRELVAAITTIGGRTYYADSVKGRFTISRDNAKNTVYLQMNSLKPEDTAVYYCAADIRSNRLYDGGYWRQGTQVTVSS | low polyreactivity |
| QVQLVESGGGLVQAGGSLRLTCAASGYTFYSYAMGWYRQAPGKERELVAAIRTGGGTNYADSVKGRFTISRDNAMNTVYLQMNSLKPEDTAVYYCAADSFDPAGHVDYWGQGTQVTVSS | low polyreactivity |
| QVQLVESGGGLVQAGGSLRLTCAASRRIFSYYAMGDYIQATGKERELVADINWSGGSTYYADSVKGRFTISRDNAKNTFYLQMNSLKPEDTAVYYCAVDWTSAYGTYYYTPYDSWGQGTQVTVSS | low polyreactivity |
| QVQLVESGGGLVQAGGSLRLTCADSGNILLFNAMGWYRQAPGKERELVATINQSGGRTYYADSVKGRFTISRDNAKNTVYLQMNSLKPEDTAVYYCNAERHPYYYWHTQRLDYWGQGTQVTVSS | low polyreactivity |
| QVQLVESGGGLVQAGGSLRLTCADSGSIFYYYGMGWYRQAPGKERELVASITQSGVSTYYADSVKGRFTISRDNANNSVYLQMNSLKPEYTAVYYCAAGTVSGVDYWGQGTQVTVSS | high polyreactivity |
| QVQLVESGGGLVQAGGSLRLTCAPSGRIFTRNTMGSYRQAPGKERELVAAISTGASTYYADSVKGRFTISRDNATNSVYLQMNSLKPEVTAVYYCATRGYARYWGLGTQVTVSS | low polyreactivity |
| QVQLVESGGGLVQAGGSLRLTCASSGRIYVVNAMGWYRQAPGKEMELVADIYRSGGSTYYADSVKGRFTISRDYAKNTVYLQMNSLKPEDTAVYYCAAEDWPSSPSAPGFDYDYWGQATQVTVSS | low polyreactivity |
| QVQLVESGGGLVQAGGSLRLTCDASGITFRLYAMGWSRQAPGKETELVARITDRGSTYYADSVKGRFTISRDNAKNTVYLQMNSLKPEDTAVYYCAARGYRGLVQLRYGYWGQGTQVTVSS | high polyreactivity |
| QVQLVESGGGLVQAGGSLRLTCDASGITYYGYAIGWSRQAPGKEREWVAGINNGGSTTYADSVKGRFTISRDNAKITVYLQMNSVKPEDTAVYYCAADPVYLNKLLYYVGQAYYYWGQGTQVTVSS | high polyreactivity |
| QVQLVESGGGLVQAGGSLRLTCDASGSTFYIYAMGWYRQAPGKERELVARISGSCGSTYYADSVKGRFTISRDNAKNTVYLQMNSLKPEETAVYDCASDDIYKNYQYYAFPYYRYDYWGQGTQVTVSS | low polyreactivity |
| QVQLVESGGGLVQAGGSLRLTCSASGIILYYYAMGWNRQAPGKERELVAAISSSGGSTYYADSVKGRFTFSRDNAKNTVYLQMKSLKPEDTAVYYCAAWVVPLRYAYGRLTYNYWGQGTQVTVSS | high polyreactivity |
| QVQLVESGGGLVQAGGSLRLTSADSGRTLYNYAMRWYRQAPGKERELVAGISSAGSTNYADSVKGRFTISRDNAKNTVYLQMNSLKPEDTAVYYCNAVLRRRWVTFYYWGQGPQVTVSS | high polyreactivity |
